Substitutions are numbered along the chain they refer to. Names may count otherwise.
B1: annexin A2: annexin A2 with carboxyl-terminal turboGFP or tdTomato tag, expressed from plasmid in myofibers (protein, UniProt P07356 2-339, looked up)
Annexin A2: STVHEILCKLSLEGDHSTPPSAYGSVKPYTNFDAERDALNIETAVKTKGVDEVTIVNILTNRSNVQRQDIAFAYQRRTKKELPSALKSALSGHLETVILGLLKTPAQYDASELKASMKGLGTDEDSLIEIICSRTNQELQEINRVYKEMYKTDLEKDIISDTSGDFRKLMVALAKGRRAEDGSVIDYELIDQDARELYDAGVKRKGTDVPKWISIMTERSVCHLQKVFERYKSYSPYDMLESIKKEVKGDLENAFLNLVQCIQNKPLYFADRLYDSMKGKGTRDKVLIRIMVSRSEVDMLKIRSEFKRKYGKSLYYYIQQDTKGDYQKALLYLCGGDD
modifications: C-terminal turboGFP or tdTomato tag
notes: annexin A2 with carboxyl-terminal turboGFP or tdTomato tag, expressed from plasmid in myofibers
B2: A2D161A: Ca2+-binding mutant of annexin A2 (D161A), plasmid expressed (protein, UniProt P07356 2-339, looked up, variant D161A)
Annexin A2: B1 Annexin A2 with D161A
modifications: GFP tag
B3: A6D149A: annexin A6 D149A mutant, plasmid expressed (protein, UniProt P14824 2-673, looked up, variant D149A)
Annexin A6: AKIAQGAMYRGSVHDFPEFDANQDAEALYTAMKGFGSDKESILELITSRSNKQRQEICQNYKSLYGKDLIEDLKYELTGKFERLIVNLMRPLAYCDAKEIKDAISGVGTDEKCLIEILASRTNEQMHQLVAAYKDAYERDLESDIIGATSGHFQKMLVVLLQGTRENDDVVSEDLVQQDVQDLYEAGELKWGTDEAQFIYILGNRSKQHLRLVFDEYLKTTGKPIEASIRGELSGDFEKLMLAVVKCIRSTPEYFAERLFKAMKGLGTRDNTLIRIMVSRSELDMLDIREIFRTKYEKSLYSMIKNDTSGEYKKALLKLCGGDDDAAGQFFPEAAQVAYQMWELSAVSRVELKGTVCAANDFNPDADAKALRKAMKGIGTDEATIIDIVTHRSNAQRQQIRQTFKSHFGRDLMADLKSEISGDLARLILGLMMPPAHYDAKQLKKAMEGAGTDEKTLIEILATRTNAEIRAINEAYKEDYHKSLEDALSSDTSGHFRRILISLATGNREEGGENRDQAQEDAQVAAEILEIADTPSGDKTSLETRFMTVLCTRSYPHLRRVFQEFIKKTNYDIEHVIKKEMSGDVKDAFVAIVQSVKNKPLFFADKLYKSMKGAGTDEKTLTRVMVSRSEIDLLNIRREFIEKYDKSLHQAIEGDTSGDFMKALLALCGGED
modifications: GFP tag
notes: annexin A6 D149A mutant, plasmid expressed
B4: annexin A1: annexin A1 with carboxyl-terminal turboGFP or tdTomato tag, expressed from plasmid in myofibers (protein, UniProt P10107 2-346, looked up)
Annexin A1: AMVSEFLKQARFLENQEQEYVQAVKSYKGGPGSAVSPYPSFNVSSDVAALHKAIMVKGVDEATIIDILTKRTNAQRQQIKAAYLQENGKPLDEVLRKALTGHLEEVVLAMLKTPAQFDADELRGAMKGLGTDEDTLIEILTTRSNEQIREINRVYREELKRDLAKDITSDTSGDFRKALLALAKGDRCQDLSVNQDLADTDARALYEAGERRKGTDVNVFTTILTSRSFPHLRRVFQNYGKYSQHDMNKALDLELKGDIEKCLTTIVKCATSTPAFFAEKLYEAMKGAGTRHKALIRIMVSRSEIDMNEIKVFYQKKYGISLCQAILDETKGDYEKILVALCGGN
modifications: C-terminal turboGFP or tdTomato tag
notes: annexin A1 with carboxyl-terminal turboGFP or tdTomato tag, expressed from plasmid in myofibers
B5: annexin A1 D171A: Ca2+-binding mutant of annexin A1 (D171A), plasmid expressed (protein, UniProt P10107 2-346, looked up, variant D171A)
Annexin A1: B4 Annexin A1 with D170A
modifications: GFP tag

Experiments:
[1] = test system: myofibers; experiment: Annexin repair cap formation after laser injury at multiple Ca2+ concentrations; assay type: cell-based, mouse; conditions: for Km1/2 (repair cap area as a function of Ca2+ concentration): Ca2+ 0-2 mM, modified Hill equation; for wildtype annexin A6 cap size with co-expressed mutant annexin A1 or A2: heterotypic co-expression; for repair cap diameter (DMAX) / cap size of the co-expressed wildtype annexin of the same type: wildtype+mutant vs wildtype+wildtype co-electroporation (homotypic)
Protocol: (§1) Electroporation, myofiber isolation, laser injury, cap and vesicle measurement. Flexor digitorum brevis (FDB) fibers were transfected with endo-free plasmid DNA by in vivo electroporation. Methods were described previously in (Demonbreun and McNally, 2015; Demonbreun et al., 2016b; DiFranco et al., 2009). Z-stack projections were acquired from consecutive acquisitions after the final time-lapse frame, approximately 4 minutes post damage, with a […] step size between slices. Z-stack renderings were constructed in FIJI. Measurement of the cap area and feret diameter were conducted from a single slice near the middle of the z-stack using FIJI imaging tools. Fibers expressing similar levels of tagged or GCaMP5G protein were compared. GCaMP5G Ca^2+ fluorescence was measured from the acquired timelapse images, using a standard rectangular ROI, placed inside the myofiber below the site of damage using FIJI. Fluorescence was expressed as F/F0. External vesicle number and GCaMP5G area were measured from endpoint z-stacks and max projection images using FIJI. Vesicles were considered external if they were found outside the sarcolemma assessed in brightfield and fluorescent channels. All measurements were acquired from myofibers isolated from at least n≥3 mice, n≥3 myofibers per mouse.
Calcium kinetics. FDB muscle was electroporated and isolated as described above. Myofibers were damaged in Ringers solution with Ca^2+ concentrations of 2 mM, 1 mM, 0.5 mM, 0.25 mM, 0.175 mM, 0.1 mM, 0.050 mM, and 0 mM. EDTA was added as a Ca^2+ chelating agent in only in the 0 mM Ca^2+ Ringers. Myofibers were isolated directly into 2 mM, 1 mM and 0.5 mM Ringers for those experiments respectively. For experiments using less than 0.5 mM Ca^2+ myofibers were isolated in 0.5 mM Ca^2+ Ringers and then diluted with 0 mM EDTA-free Ca^2+ Ringers. For 0 mM experiments, myofibers were isolated in 0.5 mM Ca^2+ Ringers and then replaced with 0 mM Ca^2++EDTA Ringers just prior to imaging. Co-electroporation of wildtype annexin+wildtype annexin constructs was performed in one mouse foot, while the contralateral foot was co-electroporated with wildtype annexin+mutant annexin. All measurements were acquired from myofibers isolated from at least n≥2 mice, n≥3 myofibers per mouse at each Ca^2+ concentration. Area-Ca^2+ curves were fitted with a Hill Curve at Ca^2+ concentrations ranging from 0-2 mM. Kinetic parameters were calculated using Prism Graphpad.
as §1, with “(Demonbreun A R, Quattrocelli M, Barefield D Y, Allen M V, Swanson K E,” for “(Demonbreun”, “McNally E M. An actin-dependent annexin complex mediates plasma membrane repair in muscle. The Journal of cell biology. 2016; 213(6):705-18; Demonbreun A R, and McNally E M. DNA Electroporation, Isolation and Imaging of Myofibers. Journal of visualized experiments: JoVE.” for “McNally,”, “106(106):e53551;” for “Demonbreun et al., 2016b;”, “M, Quinonez M, Capote J, and Vergara J. DNA transfection of mammalian skeletal muscles using in vivo electroporation. Journal of visualized experiments: JoVE. 2009; 32(32)).” for “et al., 2009).”, “Vesicles were considered external if they were found outside the sarcolemma assessed in brightfield and fluorescent channels. All measurements were acquired from myofibers isolated from at least n≥3 mice, n≥3 myofibers per mouse.” left out

[2] = test system: myofibers; experiment: Bleb formation and intracellular Ca2+ fluorescence (GCaMP5G, Fluo-4) after laser injury with annexin overexpression; assay type: cell-based, mouse; conditions: for internal GCaMP5G Ca2+ fluorescence at the site of injury: vs GCaMP5G alone
Protocol: as §1
as §1, with “(Demonbreun A R, Quattrocelli M, Barefield D Y, Allen M V, Swanson K E,” for “(Demonbreun”, “McNally E M. An actin-dependent annexin complex mediates plasma membrane repair in muscle. The Journal of cell biology. 2016; 213(6):705-18; Demonbreun A R, and McNally E M. DNA Electroporation, Isolation and Imaging of Myofibers. Journal of visualized experiments: JoVE.” for “McNally,”, “106(106):e53551;” for “Demonbreun et al., 2016b;”, “M, Quinonez M, Capote J, and Vergara J. DNA transfection of mammalian skeletal muscles using in vivo electroporation. Journal of visualized experiments: JoVE. 2009; 32(32)).” for “et al., 2009).”
Calcium and pH indicator dye measurements. Wildtype FDBs were isolated and plated in Ringers on Matek glass-bottom dishes as described above. Twenty minutes prior to imaging, myofibers were loaded with Fluo-4 AM at 37° C. (F10489, ThermoFisher Scientific, Waltham, Mass.) or pHrodo AM (P35373, ThermoFisher Scientific, Waltham, Mass.) as described in the instruction manual. Fibers were rinsed once with Ringers then subsequently damaged and imaged on the Nikon A1R GaSP, as described above. Fluorescence intensity was measured using FIJI (NIH). phRodo change in fluorescence intensity was calculated as F/F0. Data was acquired from n=3 mice per experiment from multiple myofibers per mouse. […]

[3] = fluorescently tagged annexin expressed in myofibers

| Molecule | Km1/2 (repair cap area as a function of Ca2+ concentration) [1, 3] | internal GCaMP5G Ca2+ fluorescence at the site of injury ([2]; over 240 seconds of imaging) | wildtype annexin A6 cap size with co-expressed mutant annexin A1 or A2 [1] | repair cap diameter (DMAX) / cap size of the co-expressed wildtype annexin of the same type [1] | also measured |
| --- | --- | --- | --- | --- | --- |
| B1 | 0.067 mM | significant reduction |  |  | lowest Ca2+ concentration at which a discernable repair cap formed [1, 3]: 0.05 mM; number of extracellular (GCaMP5G-positive) blebs at the membrane lesion ([2]; annexin overexpression vs annexin A1 overexpression or GCaMP5G alone): significantly more blebs; internal GCaMP5G Ca2+ fluorescence at the site of injury ([2]; first 20 seconds post injury): significant reduction |
| B2 |  |  | minimal effect | significantly reduced |  |
| B3 |  |  |  | little effect |  |
| B4 | 0.17 mM | significant reduction |  |  |  |
| B5 |  |  | minimal effect | significantly reduced |  |

— patent US20220143136A1, “USE OF ANNEXINS IN PREVENTING AND TREATING MUSCLE MEMBRANE INJURY” (NORTHWESTERN UNIVERSITY, priority 2018, published 2022)
